# T1: human HER4 Extracellular Domain (ECD) (human, UniProt Q15303 26-651)
# T1 construct: also called Her4 ECD; HER4-ECD
# T1 sequence: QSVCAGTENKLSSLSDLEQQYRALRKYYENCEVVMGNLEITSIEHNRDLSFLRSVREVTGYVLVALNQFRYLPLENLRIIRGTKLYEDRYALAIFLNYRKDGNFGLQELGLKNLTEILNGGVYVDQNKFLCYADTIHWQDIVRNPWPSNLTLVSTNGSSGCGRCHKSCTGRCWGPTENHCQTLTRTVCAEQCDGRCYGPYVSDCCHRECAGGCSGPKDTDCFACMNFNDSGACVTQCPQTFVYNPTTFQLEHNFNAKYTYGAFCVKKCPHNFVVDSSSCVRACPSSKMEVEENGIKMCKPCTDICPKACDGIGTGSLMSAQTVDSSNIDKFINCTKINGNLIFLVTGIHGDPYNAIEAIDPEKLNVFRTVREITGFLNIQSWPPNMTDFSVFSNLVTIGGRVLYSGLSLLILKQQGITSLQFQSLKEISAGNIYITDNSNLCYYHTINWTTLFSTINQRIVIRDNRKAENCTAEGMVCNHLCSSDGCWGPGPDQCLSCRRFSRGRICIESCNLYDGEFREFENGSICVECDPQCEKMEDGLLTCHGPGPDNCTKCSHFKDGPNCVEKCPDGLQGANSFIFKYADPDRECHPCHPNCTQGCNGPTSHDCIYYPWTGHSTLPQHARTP
# T2: HER4 ECD-HRG complex (human, UniProt Q15303 26-651)
# T2 construct: HER4 ECD preincubated with a 5-fold molar excess of Heregulin
# T2 sequence 1: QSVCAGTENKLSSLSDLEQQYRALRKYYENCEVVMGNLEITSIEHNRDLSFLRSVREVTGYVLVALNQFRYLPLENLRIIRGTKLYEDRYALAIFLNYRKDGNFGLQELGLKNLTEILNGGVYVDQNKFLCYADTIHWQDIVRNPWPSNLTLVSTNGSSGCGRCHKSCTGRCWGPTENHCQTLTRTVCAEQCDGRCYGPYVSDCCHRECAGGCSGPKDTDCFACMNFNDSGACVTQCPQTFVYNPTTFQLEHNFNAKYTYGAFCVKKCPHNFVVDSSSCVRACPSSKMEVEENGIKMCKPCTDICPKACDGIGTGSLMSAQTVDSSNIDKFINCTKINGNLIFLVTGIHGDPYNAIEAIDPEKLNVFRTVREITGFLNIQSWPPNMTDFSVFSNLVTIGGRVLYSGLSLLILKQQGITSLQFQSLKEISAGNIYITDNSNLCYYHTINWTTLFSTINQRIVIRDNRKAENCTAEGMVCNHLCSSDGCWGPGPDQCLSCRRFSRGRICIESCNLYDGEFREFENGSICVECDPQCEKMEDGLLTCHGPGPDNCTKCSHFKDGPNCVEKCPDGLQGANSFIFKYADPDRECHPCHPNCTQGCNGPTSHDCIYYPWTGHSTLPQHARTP
# T2 sequence 2: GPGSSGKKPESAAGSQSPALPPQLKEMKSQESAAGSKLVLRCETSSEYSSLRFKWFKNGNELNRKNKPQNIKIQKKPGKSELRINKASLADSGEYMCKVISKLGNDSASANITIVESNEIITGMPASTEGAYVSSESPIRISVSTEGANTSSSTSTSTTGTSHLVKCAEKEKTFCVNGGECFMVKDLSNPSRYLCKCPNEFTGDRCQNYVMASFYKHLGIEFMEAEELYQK
# Key:
# HER3 ECD-HRG complex [1] = molecular target: T3, HER3 ECD-HRG complex (human, UniProt P21860 20-643); test: SPR (Biacore B3000, 25 °C), antibody captured by RAM-Fcγ; 90 nM Heregulin*Her-3 ECD complex injected
# T3 construct: HER3 ECD preincubated with a 3- to 6-fold molar excess of Heregulin ('open' conformation); biotinylated Her3-ECD in the ribosome display; also called HER3-ECD/HRG1β
# Method: A CMS series sensor was mounted into the system and was normalized in HBS-ET buffer (10 mM HEPES pH 7.4, 150 mM NaCl, 3 mM EDTA, 0.005% w/v Tween 20) according to the manufacturer's instructions. The sample buffer was the system buffer supplemented with 1 mg/ml CMD (Carboxymethyldextran). The system operated at 25° C. 10000 RU RAM-Fcγ (relative units of Fcγ-fragment Rabbit Anti-Mouse IgG/Jackson Laboratories) were immobilized according to the manufacturer's instructions using EDC/NHS chemistry on all flow cells. The sensor was deactivated using 1M ethanolamine. Analytes in solution were injected at 100 μl/min at different concentration steps of 0 nM, 1.1 nM, 3.7 nM, 11.1 nM, 33.1 nM and 90 nM for 2 min. The dissociation was monitored for 5 min. Acidic regeneration of the sensor surface was achieved using three consecutive injections of 10 mM Glycine pH 1.7 at 30 μl/min for 60 sec. Kinetic data were evaluated according to a Langmuir fit.
# [2] = molecular target: T4, human HER3 Extracellular Domain (ECD) (human, UniProt P21860 20-643); test: SPR (Biacore) sensorgram overlay; the legend gives 100 nM, antibody * Her-3 ECD interaction without Heregulin; buffer reference (curve 5) stays at 0 RU
# T4 construct: human recombinant, 68 kDa; 'closed' conformation without ligand; also called Her3 ECD; Her-3 ECD
# [3] = molecular target: T1, human HER4 Extracellular Domain (ECD); test: stated in the epitope binning example
# HER4 ECD-HRG complex = molecular target: T2, HER4 ECD-HRG complex; test: SPR Biacore 3000, 37 C
# HER3 ECD-HRG complex [4] = molecular target: T3, HER3 ECD-HRG complex; test: SPR Biacore 3000, 37 C
# [5] = molecular target: T1, human HER4 Extracellular Domain (ECD); test: SPR Biacore 3000, 37 C
# [6] = molecular target: T4, human HER3 Extracellular Domain (ECD); test: SPR Biacore 3000, 37 C
binding result (HER3 ECD-HRG complex [1]),binding result [2],binding result [3],Kd (HER4 ECD-HRG complex),MR (HER4 ECD-HRG complex),koff (HER4 ECD-HRG complex),kon (HER4 ECD-HRG complex),t/2diss (HER4 ECD-HRG complex),Kd (HER3 ECD-HRG complex [4]),MR (HER3 ECD-HRG complex [4]),koff (HER3 ECD-HRG complex [4]),kon (HER3 ECD-HRG complex [4]),t/2diss (HER3 ECD-HRG complex [4]),binding result [5],Kd [6],MR [6],koff [6],kon [6],t/2diss [6],Binder
binds,binds,no binding,–,–,–,–,–,–,–,–,–,–,–,–,–,–,–,–,"anti-HER3 antibody M-08-11 (antibody, V domains shown, also called M-011; <Her3> M-08-11) VH: QAYLQQSGAELMRPGASVRMSCQASGYTFTSYTIHWLKQTPRQGLEWIGAIYPRNGDFSYNQKFKDKASLTVDTSSSTAYMHLSSLTSEDSAVYFCARTINYGDWFAYWGQGTLVTVSA VL: DIQMIQSPASLFVSEGETVIITCRASENIYSNLAWYHQKKGKSPQVLVYAAIKLADGVPLRFSGSGSGTQFSLKINSLQSEDFGSYYCQHFWGPPYTFGSGTNLEIK"
–,–,–,211 nM,0.8,0.038 s⁻¹,180000 M⁻¹ s⁻¹,0.3 min,10 nM,0.8,0.002 s⁻¹,190000 M⁻¹ s⁻¹,6 min,no binding,23 nM,0.7,0.00044 s⁻¹,19000 M⁻¹ s⁻¹,26 min,"humanized variant VH-A/VL-D of anti-HER3 antibody M-05-74 (antibody, V domains shown, also called humanized DIB-74) VH: QVQLVQSGAELKKPGASVKVSCRTSGYTLTDYWIHWVRQAPGQGLEWMGYINPYTGYTESNQKFKDRVAMTRDASINTAYMELTSLRSDDTAVYYCARPYYYGDYWGQGTLVTVSS VL: EIVLTQSPATLSLSPGERATLSCSASSSVSYMHWFQQKPGQPPRLLIYSTSNLASGIPARFSGSGSGTDFTLTISSLEPEDFAVYYCQQRSSYPFTFGGGTKVEIK"

# Source: patent US20170233490A1 (Hoffmann-La Roche, published 2017)
